Laboratory results reported in a protein production outcome set (Wang et al. 2014).

Assay: label from the status in PepcDB records
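Note: failed if final PepcDB status was selected cloned or expressed and not failed if soluble or beyond.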

Row | Sequence | protein production
1 | MRVMAFVQARMGSTRLPGKSLMPVWNGMGVLEMTLRRALRARTLSGVVLCTSTDPACDALETLASGLGVQAFRGPEDDVLTRYALATERFEPDAVVRICADSPLVCPEGIDALVAFFRDEGLDYAAHAMDGTGLPDGLGCEVFTAAALAQAHAEATAPEDREHVSLFIRHRPERFRQATLAADAALRAPGVSLDVDTQDDLDALRRFIMALPPSEGPFWSADAIAPLARGLHTPPQGTSMDIASDDYHDFFIRDGKLIGEFEQMYRKSRHAPWHQDEACDKWFNKVSAALVGHALDDPSVRTVFEVGSGLGYFLSQFAGEGRTLTGTDVSATAVEKARALFPGISFEVDDIRFEGRRGPYDLCLMQAVCWCIFPHMDDVVRNVTATVRPGGYLFLGECFQPLDGPFAGKDVIPTPDALIGHFSHAFDTVADVRVTRGEMGGGPIIYWLGRRRGLEHHHHHH | not failed
2 | MRVRNRKGATELLEANPQYVVLNPLEAKAKWRDLFGNDNPIHVEVGSGKGAFVSGMAKQNPDINYIGIDIQKSVLSYALDKVLEVGVPNIKLLWVDGSDLTDYFEDGEIDRLYLNFSDPWPKKRHEKRRLTYKTFLDTFKRILPENGEIHFKTDNRGLFEYSLVSFSQYGMKLNGVWLDLHASDFEGNVMTEYEQKFSNKGQVIYRVEAEF | not failed
3 | MRVVRGDVARRALSIGWPLVVADSALSIAWIVDTYFVGGLGSESIAAVGAAGYLIWLYMVFSTLVYMGVLVILGQAIGSGNRGLVERAAGEGLTLSILLSIIVCAAAFAASKQLLVVLAPEVDQLAWEYLSVSLLTVALHYVTILYDAVFRALGKTMPILYSSGVFTLANTALDPILIYGRLGAPALGVEGAAWASVAASLLGLLVLVYLSRYLDVGLRPLRPTSVSRSILALGFPSMVERVVFVVGNVVYLGSVSRCGADALAAHTIGVRIESLAFLPLFSIATASGVMVGWEVGAGRIAESKSTGWELIKLSSLIGLVVGAALALGGWLVTPIFTGDPRVAWLAALYLVIAGLTEPLLGVVMVAGQIIRNAGDTRTPTLVNLGSLYILRVVPAYLLPGLMPTGLCVLGAWLAMGIDIVGRAAAIVFIYLRYYTRLARRVA | failed
4 | MRWKYLVVLLIVILLASGCAEKSQGPGASAAFQEPESDTQDTEKTGNSEEGVHIDSVVFSRAGALLTLKDEAEISEIRVYSESEEIASQEIGKNKDNVFVSFNWDPEARYRFEVITGSGASGTIEAYAPSKPALKKEYTIELEDVTPGDIEKTSTNVEGALKFSPDSEYLAIGTNGGSLKLIKVATGEKVWEKQLVKGIADARIADIEFSEDGKRLFVGEESPDAFLYCFDLEGTEIWKYGAGKELGSDLKYMPAMKKIKLDSEGNIYVAASRACGYIGEKYKYLARIYSFDPEGNLRWKFPESEYMDSGVTWIDATPDGKYAVFGTTCFTETEKWREGTVHALNGNTGQEHWSYKIQPVEPFFDYSAIWYSTQITPDGEKLITMTSDGRAFLFNNSRIIETGTPEITWQQNISTPIVVSGVPIYGSANYAYIVNDTLIFSIGSTFSKDKNKDAPFEHPSGNSLFAYDYDGNLLWKWRVDGYAGECAVNDRYLVIPLAQNLVTEDRSVHGVYVFDASKSGGASSRLIQTYNTEGITVSADISPDGRYIAALEAPSRLDDGTVLGEYKVHILT | failed
5 | MRWNCSACWASSASANAGRRRHFDTSLWRASCSGYGARARQIQAAWIRADTPESTRVPATRRIRLLNPVVPVRSLSACRHLTRSRPPLRSFTMPHVVARSGDVMSSAAPPSCTSLLGLSLSMFVAPCTLTAAPLDTPVVNAPAPTPPTPDQAYPELFQAVQSGELFDDQKHFVDFLPLRDPALINADYLAQHDHPGFDLRKFVDANFEESPPVQTDAIRQDTALREHIDLLWPKLVRSQNHVPPYSSLLSLPHPYVVPGGRFREVYYWDSYFTMLGLVKSGQTTLSRQMLDNFAYLIDTYGHIPNGNRSYYLSRSQPPFFSYMVELQAGVEGQAVYQRYLPQLQKEYAYWMQGSDDVQPGQAARHVVRLADGSVLNRYWDERDTPRPEAWLHDTRTAAEVKDRPAAEVYRDLRAGAESGWDYTSRWLADGQNLRTIRTTAIIPIDLNSLLYHLERTLAQACAQPGAACSRDYAALAQQRKQAIDAHLWNKAGYYADYDWQTRTLSDQITAAALYPLFAGLASDDHAKRTASTVRRTLVRPGGLATTAVKTGQQWDEPNGWAPLQWVAVDGLRRYGEQALARTIGERFLAQVQALFAREHKLVEKYGLETNAAGGGGGEYALQDGFGWTNGVTLMLLNLYPGKGAKAAPAKRVRKTEAAAR | failed
6 | MRWRHPSALRKADERGRRTPCVVSATSLAVGRIALALLLVVLNGFFVAAEFAFVRLRSASVETLVQDGRRGATAVKEATDNLDDYLAVSQLGITIASLGLGWVGEPAVAVLVDPLLEPVLPAPVRHTVTVALGFGIVTLLHVVYGELAPKTIAIQRAERVALVVAPVMKLFYYVFLPGTILFNGIATRSVQLIGVSPETEGHDTHTEPEILSVLSEASAAGRISPAEVSMIEHVFSLDDTTVREIMRPRPDVTSVSADTPLPELRTMAASGEYTRYPVTEGPDDDVIGFVDVKDILRASDAIDESGDVTARELSRPVVVVPETLRVDELLAEFQAEHRQMAVVIDEWGAFEGLATIEDALEVIVGDIRDQFDLATHAQSIEPRDDGGYEVPGAVSITELNDHLGTDFENEAVETVAGLVVSRLGHAPTVGDRAVIDTHTFRVTGVDGARITSLTVTPDS | failed
7 | MRYERDMRGYGANPPDPKWPGGAHVAVQFVVNYEEGGENCVLHGDKASEAFLSEIVGAAPWVGQRHWNMESIYEYGARAGFWRLLRLFSESQVPVTCYGVASALARSPDQVTAMQDAGWEIASHGLRWIDYRDHSAEDERRDLEAAIKLHYEVTGQRPTGWYTGRTSVNTVRLVAEEGGFDYVSDTYDDELPYWFEHAGGTQLIIPYTLDANDMRFATPQGFNSGDQFFAYLKDSFDTLYAEGQAGRPRMMNIGLHCRLVGRPGRVAALKRFVDYVKSHDKVWLTRRIDIAKHWQENHPYKPAALRPSKMEFEIFVHTFGGVFEHSPWIAERAYELELGPAHDTAGGLHNALCRIFRSASETERLGVLNAHPDLAGKLAKARRLTAESTREQASAGLDALTDKERELFSKLNAAYVTTFGFPFIIAVKGKTKEEILAEFEARIGNSRGVEFETACKQVERIALLRLRDMLPQ | failed
8 | MRYKRRFVTVYRDFPEGCGVPSKPISNADESFMQSKFNKDGIVLQAHEDFSKITKESSNHSETENSRTEDLLDEGSVLDSNGSVTDCQEDREREMSSVKKRCLSSHNLTSEVETERIGIVLGLAAKAKCPWRQPKIRGSRQVNDLN | failed
9 | MRYSPRKQCYFALFFFAFVALCVGVIELLHQNQQDLQQERVQVEAKEQLSILRSNLEAVLMADIYKASTLATLITLLPNSEEEELSIAADRILNKSKHITVIGIAENDVISHIFPTQGNERVLGLDYRKVPAQWVQVQKAKDIQEIFIAGPVSLVQGGRGLIVRVPVFRDPPINKEYWGVISAVVDFDGLMRETGVFDFSYHYPLTIRGYDSGGEYGDMFFGDPNQTGKLYAKEHVHFPYGGWSMAAYAGGQLEQQISWFELNIVRIIGYPILIALSIALIVIYRLYIIADDRALHDELTHLPNRRYFMQSYKQQFEIAKRYKKRYSFALINIDLDRFKHINDTFGHDAGDKVLIATAERIKSSLRRSDMVARMGGDEFLVVVHNLGMEEHVQKLLQKLRLALCSTPVIYDEELIYLRVSIGYAIFDPQMTSPEQMMKIADERMYQQKHGGLEHHHHHH | not failed
10 | MRYVLALFFYRVFLLLLTPIVLLVLLIRSFNHPEYRQRLFERLGFFPKPYKQGGIVVHAASVGEVIALKSFIEKLLVNYPDLPITITSFTPTGSAQITKLFGRRVQHGYLPLDIFPCTTLFLHRLKPKMIIFMETELWPNLIAQCDQHQIKLLLINGRLSKKSLTSYQKLSALMAPCLNRFDMILTQSQENLTHFLQLGAHQSRCVNSGNLKFDISVNEQVINKKAELAKLLFADDSQAKRTVWLVASTHEGDEAITLTAFKELLSQYPSLLLVLVPRHPERFEQVANLCLTKQLSLAKRSENTIINNEQVWLLDSLGELMAAFALSDIVTMGGSFSEVGGHNPLEPALFNKPVIVGHNMSNFNEIMQQLRQENAIIELTNNTPTNESSAQLVNEVSALLQQPTRQKTLGENALKVVLKNQGASEKTLAQVVNLLPTRVNITSTTPLGDNS | failed
11 | MRYVLYVPDISCNHCKMRISKALEELGVKNYEVSVEEKKVVVETENLDSVLKKLEEIDYPVESYQEV | not failed
12 | MSAEPRLHTLRVARTARVATLGTPATAGSWWVVLHGYGQLAADFVSAFHPLVAPDRCVVAPEGLSRFYVDGMAQHEQVGASWMTREAREAEVSDYVDALDATVRHLADDTPPSLHVLGFSQGAVTASRWALWGDTAVDRLVLWGGAPAHDLDLAEHAASLRALDLTLVAGTEDPYVTDDRWAAIRRRLQAHDIPVTTRTFEGGHRIDPAPLRALVAPA | failed
13 | MSAIDSQLPSSSGQDRPTDEVDRILSPGKLIILGLQHVLVMYAGAVAVPLMIGDRLGLSKEAIAMLISSDLFCCGIVTLLQCIGIGRFMGIRLPVIMSVTFAAVTPMIAIGMNPDIGLLGIFGATIAAGFITTLLAPLIGRLMPLFPPLVTGVVITSIGLSIIQVGIDWAAGGKGNPQYGNPVYLGISFAVLIFILLITRYAKGFMSNVAVLLGIVFGFLLSWMMNEVNLSGLHDASWFAIVTPMSFGMPIFDPVSILTMTAVLIIVFIESMGMFLALGEIVGRKLSSHDIIRGLRVDGVGTMIGGTFNSFPHTSFSQNVGLVSVTRVHSRWVCISSGIILILFGMVPKMAVLVASIPQFVLGGAGLVMFGMVLATGIRILSRCNYTTNRYNLYIVAISLGVGMTPTLSHDFFSKLPAVLQPLLHSGIMLATLSAVVLNVFFNGYQHHADLVKESVSDKDLKVRTVRMWLLMRKLKKNEHGE | failed
14 | MSAIPENANVTVLNKNEKKARELIGKLGLKQIPGIIRVTFRKKDNQIYAIEKPEVFRSAGGNYVVFGEAKVDNFTQKLAAAQQQAQASGIMPSNEDVATKSPEDIQADMQAAAEGSVNAAAEEDDEEGEVDAGDLNKDDIELVVQQTNVSKNQAIKALKAHNGDLVNAIMSLSK | failed
15 | MSAIQNGTDEVRVIDTGAPPTRFARGWHCLGLASEFSDGKPHQISAFGTELVVFAGEDGKLNVLNAFCPHMGGNLADGTVKGDTIACPFHDWRWRGDGKCADIPYARRVPPLARTKSWLTLERNGQLFVWNDPQNRKPPAEVTIPEISVFGDEGWTDWVWNKLEVRGSHCREIVDNVVDMAHFFYVHYGMPTYFKNVFEGHVATQVMRSKPRADAVDVKLGTNYDTESASDASYFGPSYMIDKLWTEGDDSGEPNIMLINCHYPISADSFMLQYGVMVKKPEGVPDAVANGIAAQVAAGVAIGFEQDVEIWKKKSSIDNPLLSEEDGPVYQLRRWYEQFYVDVEDINPEMTNRFEFEIDTDRALKNWQVEVDANLAAGRSAIPSPVS | not failed
16 | MSAKTNAEVVIDGKVYTLSGYENEEYLQKVAAYINNKIAEFDDMDEYKHLPGNMKSTLIELNIADDYFKAKALVEKLEGDIENKDKEIYDLKHDLISNQVKTENAEASMKELEAQNKELLLNKARLEATLEESLLDGKKPVKKSAHASKGANDSSDK | failed
17 | MSALVSMNGNNGSTATSARIAAKKPISILVLGVDQGLEGRNDKGNSDTIILVTVNPTTKKATMTSIPRDTLTEILGETSNTSYYMFKVNSAYQFGGSSGSIKTVSAMLNVPINYYVEVNMKALESLVNALGGVDVNVPFSFSYDWCDFKKGKQHLDGRYAIAYARMRYDDPRGDYGRQLRQRQIIQAVVKKGLSVNGLANYQKLLKVFAKYVKTNLTFGDMTSLAINYRSAASNISSGYIQGHDATISGTSLQIASTEELQKWSNKLRKSLGLSPQTLTNQETRQNSLNETYNGVDFSSNETITNYTIYEANSITPRSSDSWLEHHHHHH | not failed
18 | MSAMGAGPDHLFNLRNNFYLGAYQTAINNSEIANLSPENAVERDCLVFRSYIALGSYQLVISEIDESAATPLQAVKLLAMYLSTPQNKESTISSLKEWLADSTIGNNDTLRLIAGIIFMHEEDYNETLKHTHAGGTMDLYALNVQIFIKMHRAEYAEKQLRVMQQIDEDHTLTQLASAWLNLAVGGSKIQEAYLIFEDFSEKYPMTCLILNGKAVCCMQMGNFDEAETLLLEALNKDAKDPETLANLVVCSLHVGKSSSRHLSQLKLSHPEHILVKRVSSAEDNFERAVQLVA | failed
